Experiment in all cases: fluorescence polarisation; 25 °C; unlabeled Rb^P titrated against 1.5 nM TMR-E2F1^TD or 7.5 nM TMR-E7^LxCxE; 25 mM Tris pH 8.0, 200 mM NaCl, 1 mM DTT, 0.1% Tween-20; 2 min incubation; quadratic fit; apparent Kd for the variants, Kd for WT
Settings in all cases: both partners purified
On the technique in general: Polarisation of emitted light reports the rotation of a fluorescent probe.

Experiment [1] addresses T1, Rb^P H585Y (human, UniProt P06400 380-788, H585Y).
T1 construct: also called variant 33
T1 sequence (looked up): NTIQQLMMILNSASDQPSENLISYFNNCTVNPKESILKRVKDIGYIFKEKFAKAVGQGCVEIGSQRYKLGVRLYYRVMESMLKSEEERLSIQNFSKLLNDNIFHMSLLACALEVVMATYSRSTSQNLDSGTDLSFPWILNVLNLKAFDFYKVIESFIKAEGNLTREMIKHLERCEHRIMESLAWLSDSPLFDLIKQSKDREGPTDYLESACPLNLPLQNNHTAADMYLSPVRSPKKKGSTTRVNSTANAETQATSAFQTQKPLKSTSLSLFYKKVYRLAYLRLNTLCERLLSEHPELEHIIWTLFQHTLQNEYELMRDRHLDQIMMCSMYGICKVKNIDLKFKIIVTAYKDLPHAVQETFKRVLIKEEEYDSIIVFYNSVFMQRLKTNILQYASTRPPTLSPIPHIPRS

The target in experiment [2] is T2, Rb^P E440K (human, UniProt P06400 380-788, E440K).
T2 construct: also called variant 1
T2 sequence (looked up): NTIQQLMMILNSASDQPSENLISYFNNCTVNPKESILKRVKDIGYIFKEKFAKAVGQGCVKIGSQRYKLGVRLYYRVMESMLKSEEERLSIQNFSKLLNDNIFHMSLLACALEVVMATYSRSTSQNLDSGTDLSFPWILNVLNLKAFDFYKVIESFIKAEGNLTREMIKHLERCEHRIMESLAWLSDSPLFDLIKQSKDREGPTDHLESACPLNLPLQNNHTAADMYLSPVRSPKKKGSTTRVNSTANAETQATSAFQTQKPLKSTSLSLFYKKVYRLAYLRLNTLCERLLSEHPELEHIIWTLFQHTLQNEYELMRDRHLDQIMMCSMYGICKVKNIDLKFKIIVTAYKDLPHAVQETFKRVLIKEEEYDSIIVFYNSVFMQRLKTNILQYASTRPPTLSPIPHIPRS

For experiment [3], the target named is T3, Rb^P S612P (human, UniProt P06400 380-788, S612P).
T3 construct: also called variant 39
T3 sequence (looked up): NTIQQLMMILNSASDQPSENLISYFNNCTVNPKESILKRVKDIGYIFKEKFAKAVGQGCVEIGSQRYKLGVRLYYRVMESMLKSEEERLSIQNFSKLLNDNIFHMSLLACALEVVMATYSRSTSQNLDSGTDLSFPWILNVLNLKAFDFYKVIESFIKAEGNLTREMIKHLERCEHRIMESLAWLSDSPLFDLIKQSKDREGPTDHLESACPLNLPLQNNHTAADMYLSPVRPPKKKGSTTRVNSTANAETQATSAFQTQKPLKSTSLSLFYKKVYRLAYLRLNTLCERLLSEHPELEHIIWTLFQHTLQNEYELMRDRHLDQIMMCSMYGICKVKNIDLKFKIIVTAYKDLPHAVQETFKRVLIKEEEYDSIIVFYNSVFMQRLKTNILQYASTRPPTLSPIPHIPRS

Experiment [4] concerns the target T4, Rb^P I703F (human, UniProt P06400 380-788, I703F).
T4 construct: also called variant 64
T4 sequence (looked up): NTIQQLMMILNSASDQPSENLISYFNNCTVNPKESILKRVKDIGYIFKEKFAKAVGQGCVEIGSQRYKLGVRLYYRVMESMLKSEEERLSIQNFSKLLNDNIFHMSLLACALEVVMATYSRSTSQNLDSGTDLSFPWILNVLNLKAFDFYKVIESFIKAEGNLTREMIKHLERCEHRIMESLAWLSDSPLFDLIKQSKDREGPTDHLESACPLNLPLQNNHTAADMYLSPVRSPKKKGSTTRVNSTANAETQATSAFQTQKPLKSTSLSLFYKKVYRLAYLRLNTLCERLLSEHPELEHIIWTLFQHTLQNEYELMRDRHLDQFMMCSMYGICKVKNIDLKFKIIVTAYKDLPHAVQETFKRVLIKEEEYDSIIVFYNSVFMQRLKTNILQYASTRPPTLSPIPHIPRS

In experiment [5] the target is T5, Rb^P S443L (human, UniProt P06400 380-788, S443L).
T5 construct: also called variant 2
T5 sequence (looked up): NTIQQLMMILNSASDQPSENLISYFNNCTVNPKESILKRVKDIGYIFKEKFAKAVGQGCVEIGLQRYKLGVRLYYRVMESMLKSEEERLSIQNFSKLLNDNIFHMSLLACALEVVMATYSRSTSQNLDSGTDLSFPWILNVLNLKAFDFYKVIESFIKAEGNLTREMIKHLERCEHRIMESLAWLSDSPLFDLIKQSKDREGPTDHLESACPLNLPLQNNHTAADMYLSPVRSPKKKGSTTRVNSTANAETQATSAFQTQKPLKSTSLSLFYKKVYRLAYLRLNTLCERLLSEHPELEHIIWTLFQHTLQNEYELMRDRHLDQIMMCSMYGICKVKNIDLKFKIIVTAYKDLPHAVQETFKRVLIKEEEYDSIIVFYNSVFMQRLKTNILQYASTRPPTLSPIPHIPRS

No end group written: not given here. TMR = tetramethyl rhodamine dye

B1: TMR-E2F1^TD, peptide of the E2F1 transactivation domain (peptide)
peptide: {TMR}-GEGIRDLFDCDFGDLTPLD
notes: also called E2F^TD; source: synthetic peptide, bought: GenScript
As for B1, the Kd was found to be 35 nM in experiment [1]; 12 nM in experiment [2]; 32 nM in experiment [3]; 63 nM in experiment [4]; 31 nM in experiment [5].

B2: TMR-E7^LxCxE, LxCxE peptide of the E7 oncoprotein from HPV (peptide)
peptide: DLYCYEQLN
modifications: also: TMR label, position not given here
notes: source: synthetic peptide, bought: GenScript
B2: the Kd turned out to be 6 nM in experiment [1]; 5 nM in experiment [2]; 7 nM in experiment [3]; 16 nM in experiment [4]; 9 nM in experiment [5].
